Source: paper PMC6143741

Tests used:
Test in all cases: MYTH quantitative β-Gal activity assay
[1] = target: TbMCUd without the mitochondrial targeting signal, MYTH bait or prey; conditions: n = 3; 8 colonies for each independent experiment; parent: est. 120; read off a plot
[2] = target: TbMCUc without the mitochondrial targeting signal, MYTH bait or prey; conditions: n = 3; 8 colonies for each independent experiment; parent: est. 140; read off a plot
[3] = target: TbMCUcΔ2; conditions: n = 3; 8 colonies were used in each independent experiment; read off a plot
[4] = target: TbMCUcΔ3; conditions: n = 3; 8 colonies were used in each independent experiment; read off a plot
[5] = target: TbMCUcΔ4; conditions: n = 3; 8 colonies were used in each independent experiment; read off a plot
[6] = target: TbMCUdΔ2; conditions: n = 3; 8 colonies were used in each independent experiment; read off a plot
[7] = target: TbMCUdΔ3; conditions: n = 3; 8 colonies were used in each independent experiment; read off a plot
[8] = target: TbMCUdΔ4; conditions: n = 3; 8 colonies were used in each independent experiment; read off a plot

With “TbMCU without the mitochondrial targeting signal, MYTH bait or prey Q213A; V216F; I217F; F222A” as the substance, how does the response [1] read?
Its response is 88 units.

And the response [2]?
Its response is 100 units.

Which response [1] does the source give for “TbMCU without the mitochondrial targeting signal, MYTH bait or prey TMH1 and TMH2 each replaced by WALP (…)” here?
Its response is 12 units.

What about the response [2] of the same substance?
Its response is 15 units.

How did the response [1] turn out when “TbMCU without the mitochondrial targeting signal, MYTH bait or prey TMH1 replaced by WALP (…)” was run?
Its response is 78 units.

What about the response [2] of the same substance?
Its response is 82 units.

For “TbMCU without the mitochondrial targeting signal, MYTH bait or prey TMH2 replaced by WALP (…)”, which response [1] is on record?
The response was 45 units.

And the response [2]?
The response was 50 units.

Which results are given for “TbMCU without the mitochondrial targeting signal, MYTH bait or prey Y235A; F236A; T241E; Y248A”?
response [1]: 58 units; response [2]: 65 units

Which response [3] does the source give for “TbMCUc without the mitochondrial targeting signal, MYTH bait or prey MCUcΔ2: TMH1 replaced by WALP (…), in bait and prey” here?
Its response is 85 units.

How did the response [4] turn out when “TbMCUc without the mitochondrial targeting signal, MYTH bait or prey MCUcΔ3: TMH2 replaced by WALP (…), in bait and prey” was run?
The response was 55 units.

How did the response [5] turn out when “TbMCUc without the mitochondrial targeting signal, MYTH bait or prey MCUcΔ4: TMH1 and TMH2 each replaced by WALP (…), in bait and prey” was run?
The response was 20 units.

How did the response [6] turn out when “TbMCUd without the mitochondrial targeting signal, MYTH bait or prey MCUdΔ2: TMH1 replaced by WALP (…), in bait and prey” was run?
The response was 70 units.

How did the response [7] turn out when “TbMCUd without the mitochondrial targeting signal, MYTH bait or prey MCUdΔ3: TMH2 replaced by WALP (…), in bait and prey” was run?
Its response is 52 units.

With “TbMCUd without the mitochondrial targeting signal, MYTH bait or prey MCUdΔ4: TMH1 and TMH2 each replaced by WALP (…), in bait and prey” as the substance, how does the response [8] read?
Its response is 15 units.
